Patent US20240360226A1 (AstraZeneca / MedImmune, published 2024)

T1: HER4 (Homo sapiens (Human), UniProt Q15303 26-651)
T1 construct: also called EGFR HER family protein HER4
T1 sequence: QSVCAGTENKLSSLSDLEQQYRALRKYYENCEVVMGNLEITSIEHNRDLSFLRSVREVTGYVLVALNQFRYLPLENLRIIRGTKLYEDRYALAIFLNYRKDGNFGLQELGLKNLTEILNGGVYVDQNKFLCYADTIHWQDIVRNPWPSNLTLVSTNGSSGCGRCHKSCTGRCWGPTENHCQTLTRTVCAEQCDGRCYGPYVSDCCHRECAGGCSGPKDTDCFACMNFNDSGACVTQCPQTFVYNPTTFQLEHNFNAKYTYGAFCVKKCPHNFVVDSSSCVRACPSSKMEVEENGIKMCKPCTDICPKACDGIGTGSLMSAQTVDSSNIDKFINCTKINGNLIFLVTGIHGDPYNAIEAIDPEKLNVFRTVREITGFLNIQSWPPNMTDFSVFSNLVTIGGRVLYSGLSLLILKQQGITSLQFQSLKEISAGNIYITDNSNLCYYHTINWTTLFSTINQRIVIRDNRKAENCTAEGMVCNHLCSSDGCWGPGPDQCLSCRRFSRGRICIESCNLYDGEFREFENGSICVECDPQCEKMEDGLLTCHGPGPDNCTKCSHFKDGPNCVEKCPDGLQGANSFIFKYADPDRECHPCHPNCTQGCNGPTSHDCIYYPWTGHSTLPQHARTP


What was measured:
[1] = biological target: c-MET on human tumour cells (NCI-H1975, HCC827) (human) (UniProt P08581); experiment: cell-based or functional assay
[2] = biological target: EGFR and c-MET co-expressed on HCC827 cells; experiment: confocal fluorescence microscopy, AF647-labelled antibody pre-bound to cells, T=0
HER3 = biological target: T2, HER3 (Homo sapiens (Human), UniProt P21860 20-643); experiment: ELISA, antigen coated at 1 ug/mL, anti-human Fab-HRP detection, A450
T2 construct: also called EGFR HER family protein HER3

HER4 = biological target: T1, HER4; experiment: as above
Mouse cMET (recombinant) = Mouse cMET (recombinant) (mouse, UniProt P16056 25-931, limits assumed); experiment: as above
Procedure: (§1) Specificity for EGFR and cMET species paralogs and closely related family members was determined by ELISA. Briefly, antigen solutions were prepared in PBS at 1 μg/mL and 50 microliters was coated onto half area ELISA assay plates. Plates were washed and blocked with 1% BSA in PBS containing 0.005% Tween-20 (PBS-T) for one hour at room temperature. […] Wells were incubated with 50 microliters of the indicated primary antibodies diluted in PBS-T in a 1:3 dilution series, starting at 10 μg/mL and ending at 0.002 ug/mL, except for the HER4 binding mAb control, MAB1131, for which the series started at 1 μg/mL. The wells were washed 4 times in PBS-T, then 50 μl of goat anti-human Fab HRP-labeled secondary antibody, diluted 1:5000 in PBS-T, was added to each well and incubated for one hour at room temperature. […] 50 microliters of TMB stop solution was added to all wells and the absorbance was read at 450 nm on a SpectraMax M5 microplate reader. Data were analyzed in the SoftMax Pro 5 software and plotted using GraphPad Prism 7 graphing software.
(§2) To determine the species cross reactivity, ELISA assays were carried out as described above.

[3] = biological target: EGFR and c-MET co-expressed on NCI-H1975 cells; experiment: confocal fluorescence microscopy, AF647-labelled antibody pre-bound to H1975 cells, T=0
[4] = biological target: T3, Cynomolgus monkey EGFR (recombinant, soluble monomeric) (cynomolgus monkey, UniProt P55245 25-645 (rhesus entry)); experiment: SPR (Biacore T200), antibody captured on anti-human IgG, soluble monomeric antigen as analyte, 25 C
T3 construct: also called cyno EGFR
Procedure: (§3) Mouse anti-human IgG was immobilized on a CM4 sensor chip with a final surface density of ˜2000 resonance units (RUs). A reference flow cell surface was also prepared on this sensor chip using identical immobilization protocol. Test and control article antibodies were prepared at 5-20 nM in instrument buffer (HBS-EP buffer; 0.01M HEPES, pH 7.4, 0.15M NaCl, 3 mM EDTA, and 0.005% P-20), along with 3-fold serial dilutions of purified EGFR (0.27-200 nM human, 0.4-900 nM cyno, and 4-1000 nM murine) or cMET proteins (0.27 to 66 nM human and 0.27-22 nM cyno) in instrument buffer. A sequential approach was utilized for kinetic measurements. Antibodies were first injected over the capture surface, at a flow rate of 10 μL/minute. Once the binding of the captured antibody stabilized, a single concentration of the analyte was injected over both capture and reference surfaces, at a flow rate of 75 μL/minute. The resulting binding response curves yielded the association phase data. Following the injection of analyte, the flow was then switched back to instrument buffer for 15 minutes to permit the collection of dissociation phase data, followed by a 1-minute pulse of 10 mM glycine, pH 1.5, to regenerate the antibody-captured surface on the chip. Binding responses against test and control article antibodies were recorded from duplicate injections of each concentration of analyte. In addition, several buffer injections were interspersed throughout the injection series. Select buffer injections were used along with the reference cell responses to correct the raw data sets for injection artifacts and/or nonspecific binding interactions, commonly referred to as “double referencing”. Corrected binding data were globally fit to a 1:1 binding model (Biacore T200 Evaluation software 2.0, GE Healthcare, Pittsburgh, PA).
(§4) Kinetic measurements to soluble monomeric forms of EGFR and cMET were performed using a BIACore instrument.

[5] = biological target: T4, Mouse EGFR (recombinant, soluble monomeric) (mouse, UniProt Q01279 25-647); experiment: as above
T4 construct: also called murine EGFR
Procedure: as §3, §4

[6] = biological target: T5, Cynomolgus monkey cMET (recombinant, soluble monomeric) (cynomolgus monkey, UniProt A0M8R7 25-932 (Papio anubis entry)); experiment: as above
T5 construct: also called cyno c-Met
Procedure: as §3, §4

[7] = biological target: T6, Human cMET (recombinant, soluble monomeric) (human, UniProt P08581 25-932); experiment: as above
T6 construct: also called His-tagged cMET antigen
Procedure: as §3, §4

[8] = biological target: T7, Human EGFR (recombinant, soluble monomeric) (human, UniProt P00533 25-645); experiment: as above
T7 construct: also called EGFR antigen; recombinant human EGFR
Procedure: as §3, §4

[9] = biological target: EGFR and c-MET co-expressed on HCC827 cells; experiment: confocal fluorescence microscopy, AF647-labelled antibody pre-bound to HCC827 cells, T=0
HER2 = biological target: T8, HER2 (Homo sapiens (Human), UniProt P04626 23-652); experiment: ELISA, antigen coated at 1 ug/mL, anti-human Fab-HRP detection, A450
T8 construct: also called EGFR HER family protein HER2

[10] = biological target: T7, Human EGFR (recombinant, soluble …); experiment: biolayer interferometry (Octet), antibody bound to cMET captured on NI-NTA sensors, then human EGFR
[11] = biological target: T3, Cynomolgus monkey EGFR (recombinant, …); experiment: ELISA, antigen coated at 1 ug/mL, anti-human Fab-HRP detection, A450
Procedure: as §1, §2

[12] = biological target: T4, Mouse EGFR (recombinant, soluble …); experiment: as above
Procedure: as §1, §2

T5 sequence (A0M8R7 25-932 S170N/I621T): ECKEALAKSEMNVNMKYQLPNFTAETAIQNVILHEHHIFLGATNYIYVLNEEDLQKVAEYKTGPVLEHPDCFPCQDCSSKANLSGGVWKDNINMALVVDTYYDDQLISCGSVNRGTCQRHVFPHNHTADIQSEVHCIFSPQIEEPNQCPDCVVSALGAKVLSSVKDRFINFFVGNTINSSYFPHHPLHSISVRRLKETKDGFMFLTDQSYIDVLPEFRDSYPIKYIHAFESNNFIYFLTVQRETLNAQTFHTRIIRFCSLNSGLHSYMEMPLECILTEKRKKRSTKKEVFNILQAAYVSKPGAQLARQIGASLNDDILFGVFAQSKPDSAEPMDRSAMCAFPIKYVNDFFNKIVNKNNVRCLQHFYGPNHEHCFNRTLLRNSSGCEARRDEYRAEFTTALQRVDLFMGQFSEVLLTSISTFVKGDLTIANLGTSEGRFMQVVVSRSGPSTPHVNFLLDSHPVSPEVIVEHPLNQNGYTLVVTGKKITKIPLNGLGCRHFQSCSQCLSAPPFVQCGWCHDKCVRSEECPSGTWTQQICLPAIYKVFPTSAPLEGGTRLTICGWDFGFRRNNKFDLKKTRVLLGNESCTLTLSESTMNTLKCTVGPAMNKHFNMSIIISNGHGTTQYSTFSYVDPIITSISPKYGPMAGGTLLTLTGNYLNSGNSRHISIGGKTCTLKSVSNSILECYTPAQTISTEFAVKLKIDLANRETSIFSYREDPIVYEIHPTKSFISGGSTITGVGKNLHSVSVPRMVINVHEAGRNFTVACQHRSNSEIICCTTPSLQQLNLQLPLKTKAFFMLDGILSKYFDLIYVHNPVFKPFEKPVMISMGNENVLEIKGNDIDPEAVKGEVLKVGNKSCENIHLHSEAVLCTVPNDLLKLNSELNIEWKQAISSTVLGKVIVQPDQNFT
T6 sequence (P08581 25-932): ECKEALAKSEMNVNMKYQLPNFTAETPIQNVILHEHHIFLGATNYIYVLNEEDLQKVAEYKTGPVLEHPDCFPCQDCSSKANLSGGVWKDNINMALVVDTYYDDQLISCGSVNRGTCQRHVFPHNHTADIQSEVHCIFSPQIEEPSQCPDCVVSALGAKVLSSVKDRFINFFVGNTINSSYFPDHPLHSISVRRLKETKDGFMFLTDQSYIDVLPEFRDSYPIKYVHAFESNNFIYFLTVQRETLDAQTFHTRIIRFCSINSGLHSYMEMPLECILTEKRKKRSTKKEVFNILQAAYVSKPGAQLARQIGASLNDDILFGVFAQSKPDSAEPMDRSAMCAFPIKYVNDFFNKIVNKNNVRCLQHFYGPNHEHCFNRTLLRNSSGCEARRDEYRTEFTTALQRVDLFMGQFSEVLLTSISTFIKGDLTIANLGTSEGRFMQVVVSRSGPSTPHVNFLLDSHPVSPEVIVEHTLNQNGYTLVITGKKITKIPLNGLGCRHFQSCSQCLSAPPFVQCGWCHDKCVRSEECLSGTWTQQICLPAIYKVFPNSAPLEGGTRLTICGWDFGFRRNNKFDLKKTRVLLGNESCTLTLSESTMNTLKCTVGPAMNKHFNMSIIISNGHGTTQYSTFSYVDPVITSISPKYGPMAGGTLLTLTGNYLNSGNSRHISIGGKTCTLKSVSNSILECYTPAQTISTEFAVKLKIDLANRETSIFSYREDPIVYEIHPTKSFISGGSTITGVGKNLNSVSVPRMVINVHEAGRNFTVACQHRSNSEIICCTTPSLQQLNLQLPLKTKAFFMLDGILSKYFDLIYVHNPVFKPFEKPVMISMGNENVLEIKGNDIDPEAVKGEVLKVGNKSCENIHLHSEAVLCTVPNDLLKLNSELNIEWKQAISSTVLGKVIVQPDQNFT
Chain of Mouse cMET (recombinant) (P16056 25-931 limits assumed): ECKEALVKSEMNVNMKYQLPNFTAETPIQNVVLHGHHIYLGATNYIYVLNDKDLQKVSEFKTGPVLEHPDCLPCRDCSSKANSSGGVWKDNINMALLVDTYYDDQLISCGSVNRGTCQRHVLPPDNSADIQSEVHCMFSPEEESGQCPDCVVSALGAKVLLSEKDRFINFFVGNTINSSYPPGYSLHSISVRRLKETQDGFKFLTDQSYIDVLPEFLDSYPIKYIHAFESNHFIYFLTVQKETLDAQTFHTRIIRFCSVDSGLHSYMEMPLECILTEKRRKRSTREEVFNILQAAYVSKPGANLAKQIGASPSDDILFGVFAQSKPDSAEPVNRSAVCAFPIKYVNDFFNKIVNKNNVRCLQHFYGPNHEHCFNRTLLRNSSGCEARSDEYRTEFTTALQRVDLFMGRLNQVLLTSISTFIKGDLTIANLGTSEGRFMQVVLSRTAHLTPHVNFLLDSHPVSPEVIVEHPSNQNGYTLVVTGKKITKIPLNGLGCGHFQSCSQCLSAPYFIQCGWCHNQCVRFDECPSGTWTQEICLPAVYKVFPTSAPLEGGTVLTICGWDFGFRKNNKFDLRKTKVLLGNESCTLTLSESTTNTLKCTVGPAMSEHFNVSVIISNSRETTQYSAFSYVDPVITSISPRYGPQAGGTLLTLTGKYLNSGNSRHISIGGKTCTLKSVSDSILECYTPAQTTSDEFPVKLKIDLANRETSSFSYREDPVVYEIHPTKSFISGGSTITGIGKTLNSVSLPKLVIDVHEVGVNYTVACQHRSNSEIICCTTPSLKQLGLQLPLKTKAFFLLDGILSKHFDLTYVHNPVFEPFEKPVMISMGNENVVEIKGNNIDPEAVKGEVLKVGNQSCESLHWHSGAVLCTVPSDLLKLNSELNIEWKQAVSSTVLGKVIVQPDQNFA
Chain of c-MET on human tumour cells (NCI-H1975, HCC827) (human) (P08581 25-1390): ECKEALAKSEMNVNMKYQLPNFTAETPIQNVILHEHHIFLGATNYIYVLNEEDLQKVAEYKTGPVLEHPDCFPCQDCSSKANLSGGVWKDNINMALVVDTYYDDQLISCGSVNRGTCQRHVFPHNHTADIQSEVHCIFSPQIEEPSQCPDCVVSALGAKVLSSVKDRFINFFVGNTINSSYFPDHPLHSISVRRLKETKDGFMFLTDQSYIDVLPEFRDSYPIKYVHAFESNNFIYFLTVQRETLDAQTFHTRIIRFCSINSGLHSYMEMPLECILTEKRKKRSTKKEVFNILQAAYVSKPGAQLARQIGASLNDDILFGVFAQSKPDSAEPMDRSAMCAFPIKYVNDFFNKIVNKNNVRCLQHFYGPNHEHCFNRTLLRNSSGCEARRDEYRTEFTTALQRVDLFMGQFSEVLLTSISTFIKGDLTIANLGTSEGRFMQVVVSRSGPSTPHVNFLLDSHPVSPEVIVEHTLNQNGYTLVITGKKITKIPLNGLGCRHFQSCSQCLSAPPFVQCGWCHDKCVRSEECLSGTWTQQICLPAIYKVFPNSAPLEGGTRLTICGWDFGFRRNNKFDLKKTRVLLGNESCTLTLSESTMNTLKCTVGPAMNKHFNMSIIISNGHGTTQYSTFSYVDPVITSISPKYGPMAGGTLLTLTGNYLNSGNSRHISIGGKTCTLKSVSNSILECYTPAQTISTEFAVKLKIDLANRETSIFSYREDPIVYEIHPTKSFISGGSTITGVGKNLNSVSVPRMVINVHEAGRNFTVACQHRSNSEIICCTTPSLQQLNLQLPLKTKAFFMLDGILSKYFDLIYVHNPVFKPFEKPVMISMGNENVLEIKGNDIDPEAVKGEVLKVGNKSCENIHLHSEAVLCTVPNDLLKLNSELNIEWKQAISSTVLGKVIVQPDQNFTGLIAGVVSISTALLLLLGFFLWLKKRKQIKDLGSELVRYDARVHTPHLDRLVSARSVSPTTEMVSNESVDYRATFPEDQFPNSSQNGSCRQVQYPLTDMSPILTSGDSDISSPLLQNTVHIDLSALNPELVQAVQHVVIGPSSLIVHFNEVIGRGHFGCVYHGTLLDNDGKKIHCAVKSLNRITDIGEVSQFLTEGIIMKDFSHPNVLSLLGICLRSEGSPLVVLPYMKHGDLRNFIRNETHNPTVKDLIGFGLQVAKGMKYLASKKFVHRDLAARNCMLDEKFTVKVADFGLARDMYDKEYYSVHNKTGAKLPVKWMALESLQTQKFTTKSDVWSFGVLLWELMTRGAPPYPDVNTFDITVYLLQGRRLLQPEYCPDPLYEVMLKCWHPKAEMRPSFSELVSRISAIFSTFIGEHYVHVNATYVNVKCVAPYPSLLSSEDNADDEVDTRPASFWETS

Row | Binder | binding result (HER3) | binding result (HER4) | binding result (Mouse cMET (recombinant)) | Kd [6] [nM] | koff [6] [s⁻¹] | kon [6] [M⁻¹ s⁻¹] | Kd [7] [nM] | koff [7] [s⁻¹] | kon [7] [M⁻¹ s⁻¹] | binding result (HER2) | further results
1 | B09/R347 (bispecific antibody, part only; not given: non-binding arm and constant regions, V domains shown, not shown: another chain or arm of the molecule; a dimerising Fc or GST; small tags and cut ends, AlexaFluor-647 or pHAb dye label on amines; positions not defined) VH: QVQLVQSGAEVKKPGASVKVSCKASGYTFTDYYIHWVRQATGQGLEWMGWMNPNSGNTGYAQKFQGRVTMTRDTSISTAYMELSSLRSEDTAVYYCARGQGYTHSWGQGTMVTVSS VL: DIQMTQSPSTLSASVGDRVTITCRASEGIYHWLAWYQQKPGKAPKLLIYKASSLASGVPSRFSGSGSGTEFTLTISSLQPDDFATYYCQQYSNYPPTFGGGTKLEIK | – | – | – | – | – | – | – | – | – | – | cytoplasmic intensity of AF647-labelled antibody in H1975 cells, fold higher for RAA22/B09 DuetMab than for B09-IgG (FIG. 7B) [1]: 4.7 fold
2 | RAA22/B09-57 DuetMab (bispecific antibody, human IgG1, kappa, lambda, Labelled with AlexaFluor-647 in the microscopy experiments; also called RAA22/B09-Maia; bispecific EGFR/cMET DuetMAb) heavy 1: QVQLVQSGAEVKKPGSSVKVSCKASGGTFSDNDFSWVRQAPGQGLEWMGAIVAVFRTETYAQKFQDRVKITADISTRTTYMELSSLRSEDTAVYYCARRLMSAISGPGAPLLMWGQGTLVTVSSASTKGPSVFPLAPSSKSTSGGTAALGCLVKDYFPEPVTVSWNSGALTSGVHTFPAVLQSSGLYSLSSVVTVPSSSLGTQTYICNVNHKPSNTKVDKRVEPKSCDKTHTCPPCPAPELLGGPSCVFLFPPKPKDTLMISRTPEVTCVVVDVSHEDPEVKFNWYVDGVEVHNAKTKPREEQYNSTYRVVSVLTVLHQDWLNGKEYKCKVSNKALPAPIEKTISKAKGQPREPQVCTLPPSREEMTKNQVSLSCAVKGFYPSDIAVEWESNGQPENNYKTTPPVLDSDGSFFLVSKLTVDKSRWQQGNVFSCSVMHEALHNHYTQKSLSLSPGK light 1: QSALTQPRSVSGSPGQSVTISCTGTSSDVGGYNYVSWYQQHPGKAPKLMIYDVSKRPSGVPDRFSGSKSGNTASLTISGLQAEDEADYYCSSYTSSDTLEIFGGGTKLTVLGQPKAAPSVTLFPPSSEELQANKATLVCLISDFYPGAVTVAWKADSSPVKAGVETTTPSKQSNNKYAASSYLSLTPEQWKSHRSYSCQVTHEGSTVEKTVAPTECS heavy 2: QVQLVQSGAEVKKPGASVKVSCKASGYTFTDYYIHWVRQATGQGLEWMGWMNPNSGNTGYAQKFQGRVTMTRDTSISTAYMELSSLRSEDTAVYYCARGQGYTHSWGQGTMVTVSSASTKGPSVCPLAPSSKSTSGGTAALGCLVKDYFPEPVTVSWNSGALTSGVHTFPAVLQSSGLYSLSSVVTVPSSSLGTQTYICNVNHKPSNTKVDKRVEPKSVDKTHTCPPCPAPELLGGPSCVFLFPPKPKDTLMISRTPEVTCVVVDVSHEDPEVKFNWYVDGVEVHNAKTKPREEQYNSTYRVVSVLTVLHQDWLNGKEYKCKVSNKALPAPIEKTISKAKGQPREPQVYTLPPCREEMTKNQVSLWCLVKGFYPSDIAVEWESNGQPENNYKTTPPVLDSDGSFFLYSKLTVDKSRWQQGNVFSCSVMHEALHNHYTQKSLSLSPG light 2: DIQMTQSPSTLSASVGDRVTITCRASEGIYHWLAWYQQKPGKAPKLLIYKASSLASGVPSRFSGSGSGTEFTLTISSLQPDDFATYYCQQYSNYPPTFGGGTKLEIKRTVAAPSVFIFPPCDEQLKSGTASVVCLLNNFYPREAKVQWKVDNALQSGNSQESVTEQDSKDSTYSLSSTLTLSKADYEKHKVYACEVTHQGLSSPVTKSFNRGEV | no binding (tested: 10 ug/ml) | no binding (tested: 10 ug/ml) | no binding (tested: 10 ug/ml) | 2.2 | 0.00212 | 974000 | 2.2 | 0.000986 | 443000 | no binding (tested: 10 ug/ml) | fold higher binding than on H1975 cells [2]: 8.9 fold; MFI [3]: 3.5e+06 MFI; Kd [4]: 197 nM; koff [4]: 0.00548 s⁻¹; kon [4]: 27800 M⁻¹ s⁻¹; Kd [5]: 575 nM; koff [5]: 0.0206 s⁻¹; kon [5]: 35400 M⁻¹ s⁻¹; Kd [8]: 45 nM; koff [8]: 0.00201 s⁻¹; kon [8]: 44700 M⁻¹ s⁻¹; MFI [9]: 3.1e+07 MFI
3 | B09-57 IgG (antibody, V domains shown, also called B09-GL; anti-c-Met antibody clone B09-GL) VH: QVQLVQSGAEVKKPGASVKVSCKASGYTFTDYYIHWVRQATGQGLEWMGWMNPNSGNTGYAQKFQGRVTMTRDTSISTAYMELSSLRSEDTAVYYCARGQGYTHSWGQGTMVTVSS VL: DIQMTQSPSTLSASVGDRVTITCRASEGIYHWLAWYQQKPGKAPKLLIYKASSLASGVPSRFSGSGSGTEFTLTISSLQPDDFATYYCQQYSNYPPTFGGGTKLEIK | no binding (tested: 10 ug/ml) | no binding (tested: 10 ug/ml) | no binding (tested: 10 ug/ml) | 1.9 | 0.00194 | 1.04e+06 | 1.6 | 0.000882 | 563000 | no binding (tested: 10 ug/ml) | binding result [10]: no binding (tested: 500 nM EGFR); binding result [11]: no binding (tested: 10 ug/ml); binding result [12]: no binding (tested: 10 ug/ml)
